The chains are these.
B1: peptide HD2 (from tick evasin EVA4) / CCL22 (biotinylated, synthetic) (parent complex)
chain 1: EEDDYTAYAPLTCYFT
chain 2: GPYGANMEDSVCCRDYVRYRLPLRVVKHFYWTSDSCPRPGVVLLTFRDKEICADPRVPWVKMILNKLSQ
B2: peptide HD2 (from tick evasin EVA4) / CXCL13 (biotinylated, synthetic) (parent complex)
chain 1: EEDDYTAYAPLTCYFT
chain 2: VLEVYYTSLRCRCVQESSVFIPRRFIDRIQILPRGNGCPRKEIIVWKKNKSIVCVDPQAEWIQRMMEVLRKRSSSTLPVPVFKRKIP

In the first assay the parent is B1.
As to chain 1 EEDDYTAYFPLTCYFT, the enrichment is -6.96 log2 (difference from the parental peptide).

On to chain 1 EEDDYTAYKPLTCYFT, for which the enrichment was -1.67 log2 (difference from the parental peptide). The same measure, in the same setting: in the case of chain 1 EEDDYTAYVPLTCYFT it was -7.85 log2 (difference from the parental peptide). Regarding chain 1 EEDDYTAYQPLTCYFT, the enrichment is -2.13 log2 (difference from the parental peptide). On to chain 1 FEDDYTAYAPLTCYFT, for which the enrichment is -2.24 log2 (difference from the parental peptide). In the case of chain 1 YEDDYTAYAPLTCYFT, the enrichment was -0.831 log2 (difference from the parental peptide).

With chain 1 EEDDYTHYAPLTCYFT, the enrichment was -1.29 log2 (difference from the parental peptide). Same read-out and setting: the figure for chain 1 EEDDYTNYAPLTCYFT is 0.601 log2 (difference from the parental peptide); for chain 1 EEDDYTKYAPLTCYFT it is 1.75 log2 (difference from the parental peptide). With chain 1 EEDDYTSYAPLTCYFT, the enrichment is 0.765 log2 (difference from the parental peptide). For chain 1 EEDDYTFYAPLTCYFT, the enrichment was -4.01 log2 (difference from the parental peptide). For chain 1 EEDDYTRYAPLTCYFT, the enrichment is 1.93 log2 (difference from the parental peptide). Still for that read-out and setting: in the case of chain 1 EPDDYTAYAPLTCYFT it was -5.46 log2 (difference from the parental peptide). Still for that read-out and setting: in the case of chain 1 EEDDYTASAPLTCYFT it was -8.74 log2 (difference from the parental peptide); in that of chain 1 EEDDYTAVAPLTCYFT, -7.55 log2 (difference from the parental peptide). On the same count and under the same terms, in the case of chain 1 EEDDYTAYAPLACYFT it was -0.997 log2 (difference from the parental peptide); in that of chain 1 EEDDYTAYAPLRCYFT, 4.22 log2 (difference from the parental peptide). Turning to chain 1 EEDDYTAYAPLSCYFT, the enrichment was -0.091 log2 (difference from the parental peptide).

Take chain 1 EEDDYTAYAPLPCYFT: the enrichment is 2.6 log2 (difference from the parental peptide). For chain 1 EEDDYTAYAPLNCYFT, the enrichment is -0.224 log2 (difference from the parental peptide). Turning to chain 1 EEDDYTAYAPLKCYFT, the enrichment was 2.34 log2 (difference from the parental peptide).

With chain 1 EEDDYTAYAPATCYFT, the enrichment is -0.478 log2 (difference from the parental peptide). On to chain 1 EEDDYTAYAPPTCYFT, for which the enrichment is -5.29 log2 (difference from the parental peptide). The same measure, in the same setting: in the case of chain 1 EEDDYTAYAPSTCYFT it was 0.482 log2 (difference from the parental peptide). The same measure, in the same setting: in the case of chain 1 EEDDYTAYAPGTCYFT it was -5.39 log2 (difference from the parental peptide); in that of chain 1 EEDDYTAYAPWTCYFT, -0.394 log2 (difference from the parental peptide). Same read-out and setting: in the case of chain 1 EEDDYTAYAPRTCYFT it was 1.13 log2 (difference from the parental peptide); in that of chain 1 EEDDYTAYAPCTCYFT, 0.802 log2 (difference from the parental peptide); in that of chain 1 EEDDYTAYAPFTCYFT, 0.136 log2 (difference from the parental peptide). As to chain 1 EEDPYTAYAPLTCYFT, the enrichment is -7.07 log2 (difference from the parental peptide). Regarding chain 1 EEDQYTAYAPLTCYFT, the enrichment was -6.48 log2 (difference from the parental peptide).

For the variant chain 1 EEDIYTAYAPLTCYFT, the enrichment was -7.79 log2 (difference from the parental peptide). On the same count and under the same terms, in the case of chain 1 EEDWYTAYAPLTCYFT it was -3.58 log2 (difference from the parental peptide); in that of chain 1 EEDMYTAYAPLTCYFT, -4.82 log2 (difference from the parental peptide).

Consider chain 1 EEWDYTAYAPLTCYFT, for which the enrichment is -4.6 log2 (difference from the parental peptide).

chain 1 EEDDYTAYAPLTEYFT: the enrichment is -7.93 log2 (difference from the parental peptide). In the case of chain 1 EEDDYTAYAPLTVYFT, the enrichment was -4.77 log2 (difference from the parental peptide). On to chain 1 EEDDYTAYAPLTNYFT, for which the enrichment is -2.81 log2 (difference from the parental peptide). chain 1 EEDDYTAYAPLTDYFT: the enrichment is -7.57 log2 (difference from the parental peptide).

Turning to chain 1 EEDDYTAYAPLTTYFT, the enrichment was -3.64 log2 (difference from the parental peptide). On the same count and under the same terms, the figure for chain 1 EEDDSTAYAPLTCYFT is -6.78 log2 (difference from the parental peptide); for chain 1 EEDDLTAYAPLTCYFT it is -1.89 log2 (difference from the parental peptide). Still for that read-out and setting: the figure for chain 1 EEDDMTAYAPLTCYFT is -1.76 log2 (difference from the parental peptide); for chain 1 EEDDYTAYAWLTCYFT it is -5.26 log2 (difference from the parental peptide). On to chain 1 EEDDYTAYADLTCYFT, for which the enrichment was -7.41 log2 (difference from the parental peptide). Same read-out and setting: the figure for chain 1 EEDDYTAYAGLTCYFT is -7.9 log2 (difference from the parental peptide); for chain 1 EEDDYRAYAPLTCYFT it is -0.184 log2 (difference from the parental peptide).

In the case of chain 1 EEDDYKAYAPLTCYFT, the enrichment is -1.04 log2 (difference from the parental peptide). On the same count and under the same terms, the figure for chain 1 EEDDYFAYAPLTCYFT is -4.13 log2 (difference from the parental peptide); for chain 1 EEDDYHAYAPLTCYFT it is -0.511 log2 (difference from the parental peptide); for chain 1 EEDDYPAYAPLTCYFT it is -4.79 log2 (difference from the parental peptide).

Regarding chain 1 EEDDYVAYAPLTCYFT, the enrichment is -4.41 log2 (difference from the parental peptide). The same measure, in the same setting: in the case of chain 1 EEDDYQAYAPLTCYFT it was 1.04 log2 (difference from the parental peptide); in that of chain 1 EEDDYAAYAPLTCYFT, 2.21 log2 (difference from the parental peptide); in that of chain 1 EEDDYWAYAPLTCYFT, 0.246 log2 (difference from the parental peptide). Still for that read-out and setting: in the case of chain 1 EEDDYTAYAPLTCVFT it was 0.032 log2 (difference from the parental peptide); in that of chain 1 EEDDYTAYAPLTCGFT, -4.12 log2 (difference from the parental peptide).

As to chain 1 EEDDYTAYAPLTCAFT, the enrichment is -1.98 log2 (difference from the parental peptide). In the case of chain 1 EEDDYTAYAPLTCNFT, the enrichment is -0.898 log2 (difference from the parental peptide). With chain 1 EEDDYTAYAPLTCKFT, the enrichment was -0.0931 log2 (difference from the parental peptide).

As for chain 1 EEDDYTAYAPLTCYFR, the enrichment is 0.774 log2 (difference from the parental peptide).

As for chain 1 EEDDYTAYAPLTCYFF, the enrichment was -0.929 log2 (difference from the parental peptide). On the same count and under the same terms, the figure for chain 1 EEDDYTAYAPLTCYFP is 1.71 log2 (difference from the parental peptide). On the same count and under the same terms, in the case of chain 1 EEDDYTAYAPLTCYFC it was -0.313 log2 (difference from the parental peptide); in that of chain 1 EEDDYTAYAPLTCYGT, -2.74 log2 (difference from the parental peptide). Regarding chain 1 EEDDYTAYAPLTCYQT, the enrichment is -0.747 log2 (difference from the parental peptide). As to chain 1 EEDDYTAYAPLTCYWT, the enrichment was 0.858 log2 (difference from the parental peptide). The same measure, in the same setting: the figure for chain 1 EEDDYTAYAPLTCYNT is -0.8 log2 (difference from the parental peptide); for chain 1 EEDDYTAYAPLTCYLT it is -0.246 log2 (difference from the parental peptide). Same read-out and setting: the figure for chain 1 EEDDYTAYAPLTCYHT is 0.892 log2 (difference from the parental peptide).

The variants in the next assay derive from B2.
For the variant chain 1 EELDYTAYAPLTCYFT, the enrichment was -5.21 log2 (difference from the parental peptide). On to chain 1 EEPDYTAYAPLTCYFT, for which the enrichment is -5.29 log2 (difference from the parental peptide). Same read-out and setting: the figure for chain 1 EEMDYTAYAPLTCYFT is -5.03 log2 (difference from the parental peptide). As for chain 1 EEDDYTAYAPLTCYST, the enrichment was -6.75 log2 (difference from the parental peptide).

With chain 1 EEDDYMAYAPLTCYFT, the enrichment was 3.02 log2 (difference from the parental peptide). On the same count and under the same terms, the figure for chain 1 EEDDYKAYAPLTCYFT is -2.94 log2 (difference from the parental peptide); for chain 1 EEDDYGAYAPLTCYFT it is 4.13 log2 (difference from the parental peptide). Take chain 1 EWDDYTAYAPLTCYFT: the enrichment is 1.38 log2 (difference from the parental peptide). On the same count and under the same terms, the figure for chain 1 ESDDYTAYAPLTCYFT is -2.79 log2 (difference from the parental peptide). Same read-out and setting: the figure for chain 1 EEDDYTAAAPLTCYFT is -4.55 log2 (difference from the parental peptide).

As for chain 1 EEDDYTAGAPLTCYFT, the enrichment was -3.39 log2 (difference from the parental peptide). Regarding chain 1 EEDYYTAYAPLTCYFT, the enrichment was -2.64 log2 (difference from the parental peptide).

chain 1 EEDEYTAYAPLTCYFT: the enrichment is -0.811 log2 (difference from the parental peptide). chain 1 EEDGYTAYAPLTCYFT: the enrichment was -5 log2 (difference from the parental peptide).

Consider chain 1 EEDDDTAYAPLTCYFT, for which the enrichment was 1.05 log2 (difference from the parental peptide).

Turning to chain 1 EEDDHTAYAPLTCYFT, the enrichment is -5.1 log2 (difference from the parental peptide). Same read-out and setting: in the case of chain 1 EEDDMTAYAPLTCYFT it was -0.226 log2 (difference from the parental peptide); in that of chain 1 EEDDGTAYAPLTCYFT, -3.88 log2 (difference from the parental peptide). Still for that read-out and setting: in the case of chain 1 EEDDATAYAPLTCYFT it was -2.67 log2 (difference from the parental peptide); in that of chain 1 EEDDPTAYAPLTCYFT, -1.42 log2 (difference from the parental peptide).

As for chain 1 EEDDYTAYAPLTCYFS, the enrichment is 0.948 log2 (difference from the parental peptide).

On to chain 1 EEDDYTAYAPLTCYFF, for which the enrichment was -1.23 log2 (difference from the parental peptide). chain 1 EEDDYTAYAPLTCYFG: the enrichment was 2.07 log2 (difference from the parental peptide). As to chain 1 EEDDYTAYAPLTCYFR, the enrichment was -7.96 log2 (difference from the parental peptide). The same measure, in the same setting: the figure for chain 1 EEDDYTAYAPLTLYFT is -10.1 log2 (difference from the parental peptide).

As to chain 1 EEDDYTAYAPLTCHFT, the enrichment is -4.76 log2 (difference from the parental peptide). As for chain 1 KEDDYTAYAPLTCYFT, the enrichment was -4.84 log2 (difference from the parental peptide). The same measure, in the same setting: in the case of chain 1 DEDDYTAYAPLTCYFT it was 2.17 log2 (difference from the parental peptide); in that of chain 1 SEDDYTAYAPLTCYFT, -2.39 log2 (difference from the parental peptide); in that of chain 1 NEDDYTAYAPLTCYFT, -1.5 log2 (difference from the parental peptide).

Take chain 1 EEDDYTAYYPLTCYFT: the enrichment is -1.21 log2 (difference from the parental peptide). As for chain 1 EEDDYTAYHPLTCYFT, the enrichment was -1.63 log2 (difference from the parental peptide). Same read-out and setting: in the case of chain 1 EEDDYTAYAPLDCYFT it was -5.43 log2 (difference from the parental peptide). Consider chain 1 EEDDYTAYAPLFCYFT, for which the enrichment is -1.29 log2 (difference from the parental peptide). The same measure, in the same setting: in the case of chain 1 EEDDYTAYAPLMCYFT it was -0.149 log2 (difference from the parental peptide); in that of chain 1 EEDDYTAYAPLACYFT, -5.98 log2 (difference from the parental peptide). On to chain 1 EEDDYTAYANLTCYFT, for which the enrichment is -5.21 log2 (difference from the parental peptide).

For chain 1 EEDDYTAYADLTCYFT, the enrichment was 0.396 log2 (difference from the parental peptide). On the same count and under the same terms, the figure for chain 1 EEDDYTTYAPLTCYFT is 2.08 log2 (difference from the parental peptide); for chain 1 EEDDYTHYAPLTCYFT it is 0.018 log2 (difference from the parental peptide); for chain 1 EEDDYTAYAPATCYFT it is -7.28 log2 (difference from the parental peptide). For the variant chain 1 EEDDYTAYAPWTCYFT, the enrichment was -1.43 log2 (difference from the parental peptide).
